Laboratory results as given in US20140274782A1, “AFFINITY REAGENTS AND METHODS FOR DETECTION, PURIFICATION, AND PROTEOMIC ANALYSIS OF METHYLATED PROTEINS” (The Board of Trustees of the Leland Stanford Junior …, priority 2013, published 2014).

T1: G9a and GLP (Homo sapiens, UniProt Q96KQ7+Q9H9B1)
T1 sequence (Q96KQ7 2-1210 limits assumed): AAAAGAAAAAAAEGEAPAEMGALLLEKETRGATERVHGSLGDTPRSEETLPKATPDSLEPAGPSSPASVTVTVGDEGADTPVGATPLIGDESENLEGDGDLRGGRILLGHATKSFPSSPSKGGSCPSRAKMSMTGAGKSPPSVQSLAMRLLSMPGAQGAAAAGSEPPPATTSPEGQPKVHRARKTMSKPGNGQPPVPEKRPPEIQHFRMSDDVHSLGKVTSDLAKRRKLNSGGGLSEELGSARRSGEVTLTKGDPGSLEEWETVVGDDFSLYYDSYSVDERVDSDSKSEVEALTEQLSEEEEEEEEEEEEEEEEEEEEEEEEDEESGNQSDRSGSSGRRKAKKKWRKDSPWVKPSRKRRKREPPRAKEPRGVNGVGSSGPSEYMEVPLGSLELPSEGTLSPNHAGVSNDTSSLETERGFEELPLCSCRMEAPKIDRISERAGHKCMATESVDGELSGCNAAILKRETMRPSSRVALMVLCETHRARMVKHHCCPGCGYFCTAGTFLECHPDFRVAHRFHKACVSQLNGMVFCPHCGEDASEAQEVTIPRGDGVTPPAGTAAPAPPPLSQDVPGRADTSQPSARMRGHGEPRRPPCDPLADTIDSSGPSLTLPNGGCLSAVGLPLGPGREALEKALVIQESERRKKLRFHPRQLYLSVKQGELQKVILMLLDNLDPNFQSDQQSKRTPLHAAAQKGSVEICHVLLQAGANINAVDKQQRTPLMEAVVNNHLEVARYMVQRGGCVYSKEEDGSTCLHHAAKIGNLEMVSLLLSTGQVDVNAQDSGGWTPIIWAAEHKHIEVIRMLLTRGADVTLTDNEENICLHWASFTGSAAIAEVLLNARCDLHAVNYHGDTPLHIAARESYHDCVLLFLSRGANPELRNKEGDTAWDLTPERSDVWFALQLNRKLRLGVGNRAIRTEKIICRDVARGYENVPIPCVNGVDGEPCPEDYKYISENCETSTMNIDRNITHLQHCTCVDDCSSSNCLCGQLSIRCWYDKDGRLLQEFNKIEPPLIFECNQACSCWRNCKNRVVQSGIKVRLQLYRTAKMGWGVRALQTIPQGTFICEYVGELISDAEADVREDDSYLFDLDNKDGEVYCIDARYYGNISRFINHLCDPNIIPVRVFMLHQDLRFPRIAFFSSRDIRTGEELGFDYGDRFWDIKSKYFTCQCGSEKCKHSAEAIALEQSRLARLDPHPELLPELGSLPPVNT
T1 sequence (Q9H9B1 2-1298 limits assumed): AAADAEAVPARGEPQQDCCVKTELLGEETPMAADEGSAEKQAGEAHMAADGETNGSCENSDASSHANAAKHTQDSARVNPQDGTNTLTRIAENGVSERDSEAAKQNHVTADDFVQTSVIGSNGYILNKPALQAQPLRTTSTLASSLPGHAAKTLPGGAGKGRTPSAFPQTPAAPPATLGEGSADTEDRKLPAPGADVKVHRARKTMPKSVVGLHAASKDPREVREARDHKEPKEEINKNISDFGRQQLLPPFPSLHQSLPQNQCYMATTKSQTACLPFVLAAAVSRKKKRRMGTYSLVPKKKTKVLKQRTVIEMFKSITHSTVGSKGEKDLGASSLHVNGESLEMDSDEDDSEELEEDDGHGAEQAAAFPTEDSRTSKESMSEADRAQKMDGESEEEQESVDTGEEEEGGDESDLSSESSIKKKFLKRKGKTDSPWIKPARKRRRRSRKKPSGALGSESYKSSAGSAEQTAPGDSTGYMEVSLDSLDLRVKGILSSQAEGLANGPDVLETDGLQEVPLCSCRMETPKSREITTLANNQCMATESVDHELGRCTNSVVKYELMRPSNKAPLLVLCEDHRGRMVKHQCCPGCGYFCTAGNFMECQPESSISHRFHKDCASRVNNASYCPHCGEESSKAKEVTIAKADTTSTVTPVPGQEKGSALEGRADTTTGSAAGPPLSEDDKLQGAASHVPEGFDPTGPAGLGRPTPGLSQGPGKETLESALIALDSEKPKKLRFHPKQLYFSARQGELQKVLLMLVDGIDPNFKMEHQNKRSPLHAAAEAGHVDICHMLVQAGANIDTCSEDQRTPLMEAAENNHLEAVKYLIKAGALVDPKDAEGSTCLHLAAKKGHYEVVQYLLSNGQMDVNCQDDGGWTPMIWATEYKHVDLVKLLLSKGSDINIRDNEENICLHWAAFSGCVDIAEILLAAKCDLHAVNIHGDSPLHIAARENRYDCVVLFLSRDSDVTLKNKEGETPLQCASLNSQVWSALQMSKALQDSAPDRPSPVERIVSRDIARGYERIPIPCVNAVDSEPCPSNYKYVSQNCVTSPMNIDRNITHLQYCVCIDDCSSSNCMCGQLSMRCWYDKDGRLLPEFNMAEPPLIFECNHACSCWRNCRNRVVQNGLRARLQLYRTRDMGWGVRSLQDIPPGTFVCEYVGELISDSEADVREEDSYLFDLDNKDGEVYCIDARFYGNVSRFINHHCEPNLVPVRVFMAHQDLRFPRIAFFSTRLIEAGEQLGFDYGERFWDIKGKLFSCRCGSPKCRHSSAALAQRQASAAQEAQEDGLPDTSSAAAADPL

B1: RPRD1A (protein, UniProt Q96P16 2-312, looked up)
Regulation of nuclear …: SAFSEAALEKKLSELSNSQQSVQTLSLWLIHHRKHSRPIVTVWERELRKAKPNRKLTFLYLANDVIQNSKRKGPEFTKDFAPVIVEAFKHVSSETDESCKKHLGRVLSIWEERSVYENDVLEQLKQALYGDKKPRKRTYEQIKVDENENCSSLGSPSEPPQTLDLVRALQDLENAASGDAAVHQRIASLPVEVQEVSLLDKITDKESGERLSKMVEDACMLLADYNGRLAAEIDDRKQLTRMLADFLRCQKEALAEKEHKLEEYKRKLARVSLVRKELRSRIQSLPDLSRLPNVTGSHMHLPFAGDIYSED
B2: NPM3 (protein, UniProt O75607 2-178, looked up)
Nucleoplasmin-3: AAGTAAALAFLSQESRTRAGGVGGLRVPAPVTMDSFFFGCELSGHTRSFTFKVEEEDDAEHVLALTMLCLTEGAKDECNVVEVVARNHDHQEIAVPVANLKLSCQPMLSLDDFQLQPPVTFRLKSGSGPVRITGRHQIVTMSNDVSEEESEEEEEDSDEEEVELCPILPAKKQGGRP
B3: SRRT (protein, UniProt Q9BXP5 2-876, looked up)
Serrate RNA effector molecule …: GDSDDEYDRRRRDKFRRERSDYDRSRERDERRRGDDWNDREWDRGRERRSRGEYRDYDRNRRERFSPPRHELSPPQKRMRRDWDEHSSDPYHSGYEMPYAGGGGGPTYGPPQPWGHPDVHIMQHHVLPIQARLGSIAEIDLGVPPPVMKTFKEFLLSLDDSVDETEAVKRYNDYKLDFRRQQMQDFFLAHKDEEWFRSKYHPDEVGKRRQEARGALQNRLRVFLSLMETGWFDNLLLDIDKADAIVKMLDAAVIKMEGGTENDLRILEQEEEEEQAGKPGEPSKKEEGRAGAGLGDGERKTNDKDEKKEDGKQAENDSSNDDKTKKSEGDGDKEEKKEDSEKEAKKSSKKRNRKHSGDDSFDEGSVSESESESESGQAEEEKEEAEEALKEKEKPKEEEWEKPKDAAGLECKPRPLHKTCSLFMRNIAPNISRAEIISLCKRYPGFMRVALSEPQPERRFFRRGWVTFDRSVNIKEICWNLQNIRLRECELSPGVNRDLTRRVRNINGITQHKQIVRNDIKLAAKLIHTLDDRTQLWASEPGTPPLPTSLPSQNPILKNITDYLIEEVSAEEEELLGSSGGAPPEEPPKEGNPAEINVERDEKLIKVLDKLLLYLRIVHSLDYYNTCEYPNEDEMPNRCGIIHVRGPMPPNRISHGEVLEWQKTFEEKLTPLLSVRESLSEEEAQKMGRKDPEQEVEKFVTSNTQELGKDKWLCPLSGKKFKGPEFVRKHIFNKHAEKIEEVKKEVAFFNNFLTDAKRPALPEIKPAQPPGPAQILPPGLTPGLPYPHQTPQGLMPYGQPRPPILGYGAGAVRPAVPTGGPPYPHAPYGAGRGNYDAFRGQGGYPGKPRNRMVRGDPRAIVEYRDLDAPDDVDFF
B4: TK1 (protein, UniProt P04183 2-234, looked up)
Thymidine kinase, cytosolic: SCINLPTVLPGSPSKTRGQIQVILGPMFSGKSTELMRRVRRFQIAQYKCLVIKYAKDTRYSSSFCTHDRNTMEALPACLLRDVAQEALGVAVIGIDEGQFFPDIVEFCEAMANAGKTVIVAALDGTFQRKPFGAILNLVPLAESVVKLTAVCMECFREAAYTKRLGTEKEVEVIGGADKYHSVCRLCYFKKASGQPAGPDNKENCPVPGKPGEAVAARKLFAPQQILQCSPAN
B5: MRE11A (protein, UniProt P49959 2-708, looked up)
Double-strand break repair …: STADALDDENTFKILVATDIHLGFMEKDAVRGNDTFVTLDEILRLAQENEVDFILLGGDLFHENKPSRKTLHTCLELLRKYCMGDRPVQFEILSDQSVNFGFSKFPWVNYQDGNLNISIPVFSIHGNHDDPTGADALCALDILSCAGFVNHFGRSMSVEKIDISPVLLQKGSTKIALYGLGSIPDERLYRMFVNKKVTMLRPKEDENSWFNLFVIHQNRSKHGSTNFIPEQFLDDFIDLVIWGHEHECKIAPTKNEQQLFYISQPGSSVVTSLSPGEAVKKHVGLLRIKGRKMNMHKIPLHTVRQFFMEDIVLANHPDIFNPDNPKVTQAIQSFCLEKIEEMLENAERERLGNSHQPEKPLVRLRVDYSGGFEPFSVLRFSQKFVDRVANPKDIIHFFRHREQKEKTGEEINFGKLITKPSEGTTLRVEDLVKQYFQTAEKNVQLSLLTERGMGEAVQEFVDKEEKDAIEELVKYQLEKTQRFLKERHIDALEDKIDEEVRRFRETRQKNTNEEDDEVREAMTRARALRSQSEESASAFSADDLMSIDLAEQMANDSDDSISAATNKGRGRGRGRRGGRGQNSASRGGSQRGRADTGLETSTRSRNSKTAVSASRNMSIIDAFKSTRQQPSRNVTTKNYSEVIEVDESDVEEDIFPTTSKTDQRWSSTSSSKIMSQSQVSKGVDFESSEDDDDDPFMNTSSLRRNRR

test system: 3×MBT domain of L3MBTL1; test: Triple SILAC pull-down, 3xMBT/3xMBTD355N ratio (cytoplasmic, nuclear and chromatin fractions of 293T cells); format: binding, human; conditions: SILAC ratio 3xMBT vs 3xMBTD355N pull-down, 293T cells; experiment with UNC0638 in heavy SILAC media; all values in log base 2;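 also: proteins quantified with MaxQuant, requiring at least two unique peptides and quantification in both label directions, normalized to the mean of proteins from a digested loading control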

Row | Molecule | 3xMBT/D355N UNC Heavy [log base 2]
1 | B1 | 2.16
2 | B2 | 2.70
3 | B3 | 2.15
4 | B4 | 2.89
5 | B5 | 1.35

same assay, conditions: SILAC ratio 3xMBT vs 3xMBTD355N pull-down, 293T cells; experiment with UNC0638 in light SILAC media; all values in log base 2

Row | Molecule | 3xMBT/D355N UNC Light [log base 2]
6 | B1 | 1.62
7 | B2 | 2.15
8 | B3 | 2.41
9 | B4 | 2.36
10 | B5 | 2.06

molecular target: T1, G9a and GLP; test: Triple SILAC pull-down after UNC0638 treatment of 293T cells, DMSO/UNC0638 ratio of protein captured by 3×MBT; format: cell-based; design: cells were treated for 24 hours with UNC0638 at 2.5 μM or DMSO vehicle control; endogenous in cells; host or cells: HEK 293T; conditions: SILAC ratio DMSO relative to UNC0638, pull-down with 3xMBT; UNC0638 in heavy SILAC media; all values in log base 2;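 also: mass spectrometry (Q-Exactive) SILAC quantitation, DMSO/UNC0638 ratio computed after subtracting 3×MBTD355N mutant pull-down background, only proteins with at least twofold 3×MBT over mutant signal considered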

Row | Molecule | Relative to UNC0638 UNC Heavy [log base 2]
11 | B1 | 0.16
12 | B2 | 0.13
13 | B3 | 0.02
14 | B4 | 0.63
15 | B5 | 0.07

same assay, conditions: SILAC ratio DMSO relative to UNC0638, pull-down with 3xMBT; UNC0638 in light SILAC media; all values in log base 2

Row | Molecule | Relative to UNC0638 UNC Light [log base 2]
16 | B1 | −0.02
17 | B2 | 0.03
18 | B3 | 0.15
19 | B4 | −0.50
20 | B5 | 0.07

same assay, conditions: average of UNC Light and UNC Heavy experiments; all values in log base 2

Row | Molecule | Relative to UNC0638 Average [log base 2]
21 | B1 | 0.07
22 | B2 | 0.08
23 | B3 | 0.08
24 | B4 | 0.07
25 | B5 | 0.07
